Reference: the supplement of paper PMC11908140

B1: library; numbered along this chain (parent)
chain: MRKPRAAVGSGHRKQAASQEGRQKHAKNNSQAKPSACDGLARQPEEVVLQASVSSYHLFRDVAEVTAFRGSLLSWYDQEKRDLPWRRRAEDEMDLDRRAYAVWVSEVMLQQTQVATVINYYTGWMQKWPTLQDLASASLEEVNQLWAGLGYYSRGRRLQEGARKVVEELGGHMPRTAETLQQLLPGVGRYTAGAIASIAFGQATGVVDGNVARVLCRVRAIGADPSSTLVSQQLWGLAQQLVDPARPGDFNQAAMELGATVCTPQRPLCSQCPVESLCRARQRVEQEQLLASGSLSGSPDVEECAPNTGQCHLCLPPSEPWDQTLGVVNFPRKASRKPPREESSATCVLEQPGALGAQILLVQRPNSGLLAGLWEFPSVTWEPSEQLQRKALLQELQRWAGPLPATHLRHLGEVVHTFSHIKLTYQVYGLALEGQTPVTTVPPGARWLTQEEFHTAAVSTAMKKVFRVYQGQQPGTCMGSKRSQVSSPCSRKKPRMGQQVLDNFFRSHISTDAHSLNSAAQ

Variants of: B1
Assay: 8OG:A repair function score (normalized; synonymous = 0, nonsense = -1) (normalized log-likelihood score); higher = more repair activity (WT-like)
Settings: with 8OG:A DNA repair reporter (GFP) in HEK-293 MUTYH KO cells
Procedure: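 Saturation mutagenesis (NNN codon scan) of the MUTYH cDNA (521-aa nuclear isoform NM_001048174.1 / NP_001041639), stably expressed under doxycycline induction in HEK-293 MUTYH knockout cells. Cells were co-transfected with an 8OG:A-bearing GFP repair reporter plus mCherry and sorted 72 h later into GFP+ and GFP− bins, three replicates per tile. The Rosace log2 enrichment (GFP+ vs GFP−) was converted per tile to a normalized function score with synonymous variants centered at 0 and nonsense variants (codons 1-471) at -1; low-abundance variants were removed.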

Variant | 8OG:A repair function score
M496K | 0.00764
L49G | -0.027
L49E | 0.0582
V458F | -0.4
V458G | -0.853
V211I | -0.0557
V468N | -0.262
S507C | -0.0153
P402Q | -0.236
R175I | -0.189
R175Q | 0.0309
Q521S | -0.00358
P225R | -0.147
G222K | -0.495
G222E | -0.565
R42E | 0.021
G150E | -1.13
D82L | -0.0723
S231N | 0.155
S231D | -0.132
F200Y | 0.0681
M173P | -0.654
E90F | -0.0713
E90L | 0.0056

Variant | 8OG:A repair function score
E90R | 0.0046
D208R | -1.03
D208C | -1.02
D208I | -1.02
A51I | -0.041
L315R | -0.0162
D91N | -0.0978
P383A | 0.0723
N366P | -0.104
N366T | -0.00609
H57N | -0.729
H57C | -0.642
D249G | -0.675
D249W | -0.851
D61I | -0.0219
D61P | -0.00103
G434A | 0.188
G434T | -0.0414
R283G | -0.364
Q159L | 0.127
T176K | -0.0846
P267G | -0.225
P267S | -0.361
H172Y | -0.0294

Variant | 8OG:A repair function score
I195Q | -1.01
I195V | -0.0879
A192Q | -1.03
S276I | -0.0404
S276C | -0.133
P320T | -0.0175
T260M | -0.0209
P474D | 0.00257
C216H | -0.687
L139Y | -0.0177
L139R | -0.0247
P316W | -0.331
T112R | -0.922
R60N | 0.00565
R60K | -0.0179
R60W | -0.564
A147N | -0.0408
A147L | -0.207
T511S | -0.0121
N307Y | -0.0923
Q126L | 0.0989
F330K | -0.928
S138M | -0.0953
L396G | -0.426

Variant | 8OG:A repair function score
V414M | -0.321
N329Y | -0.104
R364L | -0.747
V48R | 0.0418
V48P | -0.11
L158S | -1.05
C272K | -1.41
V218A | -0.268
G471C | -0.0198
Q498G | 0.0187
Q498S | 0.0168
K337P | 0.0544
G171S | -0.267
I198F | -0.447
I198T | -0.36
K3T | 0.144
T346A | -0.0694
A354E | -0.0284
V142R | -0.841
V142I | -0.297
V142A | -0.377
R279C | -0.251
R279L | -0.146
C278H | -1.09

Variant | 8OG:A repair function score
S318N | -0.0704
V500N | -0.0108
A135D | -0.636
N517K | -0.077
N517E | -0.0872
N517H | 0.0285
S226A | 0.0017
S226G | -0.00798
S226H | 0.0371
T440S | 0.0249
T440C | 0.0206
A291R | -0.0282
L109C | -0.0119
S367I | -0.335
R495E | 0.0282
R495G | -0.0152
R495D | 0.0213
P273E | -0.952
P273D | -1.05
A6T | 0.0379
L95Q | -0.0116
L95S | -0.00398
I509P | 0.0272
D94K | -0.193

Variant | 8OG:A repair function score
D94L | -0.105
G161Y | -1.04
T263W | -0.28
T263Y | -0.113
T191R | -1.16
H420C | -0.465
S294H | -0.0171
S294D | -0.0514
S294K | -0.0502
V327E | -0.178
E160N | -0.0629
G148K | -0.475
Y120W | -0.465
Y469L | -0.314
G193S | 0.0283
N251Q | -0.901
G170P | -0.872
G170S | 0.00875
Q394E | 0.261
Q394K | -0.158
Q271P | -0.311
S487I | -0.00284
T66F | -0.00932
R281L | -0.166

Variant | 8OG:A repair function score
L277C | -0.0293
V62W | -0.0135
C311Y | -0.394
L290A | -0.0163
I421H | -0.201
I421E | -0.385
E275W | -0.0767
A67D | 0.00532
R266C | -0.085
H312A | -0.0906
H312V | 0.078
D224W | -0.942
A357W | -0.104
W124N | -1.01
W124S | -0.825
L289Q | 0.015
L289H | 0.0106
E303N | -0.0416
A203L | -0.0917
E342K | 0.0199
C304H | -0.403
L215V | -0.573
T449K | -0.144
R340H | -0.253

Variant | 8OG:A repair function score
D512I | -0.0146
D512K | -0.0591
D300W | -0.16
A520S | -0.0114
E413K | 0.103
E413P | -0.386
A162C | -0.175
A162N | -0.917
P174L | -0.947
Q388G | -0.34
Q240Y | -0.969
L58Q | -0.00261
Q144T | -0.0237
F505K | -0.0487
L370M | -0.659
T406R | 0.0241
T406Q | -0.294
A177G | -0.166
V438L | -0.0153
L268T | 0.012
G479A | 0.00119
P442I | -0.0279
A36I | -0.0893
P306C | -0.044

Variant | 8OG:A repair function score
S298R | -0.0386
E287S | 0.005
A280E | -0.713
A280R | -0.814
K481N | -2.28e-05
P365I | 0.146
S486C | -0.016
P299F | 0.00405
Q182K | 0.129
Q182M | -0.0488
M255I | -0.363
L83R | -0.559
T204K | 0.0186
T204P | -0.903
T204C | 0.0932
E452K | -0.211
P494N | 0.0224
P494R | 0.00547
P494D | -0.00383
P494V | -0.0025
D133M | 0.0651
H410C | -0.293
H410R | 0.0868
H410Q | -0.291

Variant | 8OG:A repair function score
F376R | -1.31
F376A | -0.775
K390Y | -0.199
K390N | 0.177
R467Q | -0.0758
Q113T | 0.157
Q113W | -0.172
R81E | -0.678
L349Y | -0.257
A137P | -0.869
A137W | -1.02
K164N | -0.37
K164H | -0.186
T436K | -0.201
R98V | -0.16
R98W | -0.0663
S343M | 0.0865
S343Q | -0.144
A391K | -0.22
R156F | -0.3
R156M | -0.207
V104Y | -1.27
E385Q | 0.29
V261C | -0.11

Variant | 8OG:A repair function score
R246D | -0.657
Y121G | -1.09
Y121N | -3.31
A457M | -0.585
S344R | -0.0609
V415D | -0.364
V415R | 0.157
A371G | 0.0402
A253L | -1.02
G368Q | -0.304
A238Q | -0.254
L72S | -0.775
L257H | -0.401
M462S | -0.0759
L184E | -1.09
K422I | -0.297
K422D | -0.458
K422R | 0.334
Q265T | 0.00721
R69N | -1.56
V441M | 0.176
L411Q | -0.494
Q499G | -0.0117
Q499E | 0.0257

Variant | 8OG:A repair function score
F59W | -0.25
F59G | -0.925
H508Q | 0.000578
V102M | -0.352
R506C | 0.0164
P443N | 0.222
P443I | 0.0878
V242F | -0.874
V242E | -0.964
V242W | -1.01
A212C | -0.00168
R154S | -1.03
N119W | -0.704
N119V | 0.0134
A431K | 0.126
G123V | 0.0959
G248F | -0.958
E451I | -0.186
E433Y | -0.0863
K80L | -0.278
L403C | 0.158
P84Y | -0.697
P84R | -1.06
G236C | 0.116

Variant | 8OG:A repair function score
Y190N | -0.443
I118F | -0.3
Q110H | -0.0864
R219E | -0.837
Q426H | -0.0882
V107K | -0.731
F250A | -0.516
P377G | -1.26
G372P | -0.669
G372W | -0.135
G372L | -0.351
P488M | -0.0122
P488A | -0.0161
T455M | -0.111
A194C | -0.313
W381G | 0.0649
G188C | -0.839
G188R | -0.844
R157P | -1.11
R157H | -0.0973
R217L | -1.01
S480P | -0.000393
Q282A | -0.0281
Q282P | -0.526

Variant | 8OG:A repair function score
E341G | -0.208
Q181A | -0.034
Q181V | -0.114
Q181R | -0.0552
P437D | -0.128
R332Y | -0.166
T308R | 0.0174
G429L | -0.125
Y151I | -0.244
E319W | -0.0166
E319M | -0.0278
T460N | -0.00346
T460V | -0.029
F418K | -0.75
R88G | -0.107
R88H | 0.0048
L325M | -0.0835
L325F | -0.00965
L325A | -0.0759
L169C | -0.0691
L373H | -0.452
G297L | -0.000773
